Assay results from paper PMC12691643.
Where “and” joins values, the source holds several entries; their conditions need not be identical. Identical values can stand only once.

B1: Git2, endogenous in murine DC2.4 cells (natural protein)
chain: MSKRLRSSDVCADCNGPDPSWASVNRGTFICDECCSVHRSLGRHISQVRHLKHTAWPPTLLQMVETLYNNGANSIWEHSLLDPASIMSGRRKANPQDKVHPNKAEFIRAKYQMLAFVHRLPCREDDSVTAKDLSKQLHSSVRTGNLETCLRLLSLGAQANFFHPEKGSTPLHVASKAGQILQAELLAVYGADPGTQDSSGKTPVDYARQGGHHELAERLIEIQYELTDRLAFYLCGRKPDHKSGQHFLIPQRADSLDLSELAKAAKKKLQSLSNHLFEELAMDVYDEVDRRETDAVWLATQNHSTLVTETTVVPFLPVNPEYSSTRNQGRQKLARFNAHEFATLVIDILSDAKRRQQGSPLSRSKDNVELILRTVSTQHSTESQDNDQPDYDSVASDEDTDVETRASKANRQKLQTLQSENSSLRRQATASACQVQTGSDHKDTASHSSLKRRPSARGSRPMSMYETGSGQKPYLPMGEASHPEESRTRLQPFPTHIGRSALVTSSSSLPSFPSTLSWSRDESARRASRLEKQNSTPESDYDNTACDPEPDDTGSTRKGRQRSMLWQGDGLLPDTAEPHSVPSPTLPSTEDVIRKTEQITKNIQELLRAAQENKHDSYIPCSERIHVAVTEMAALFPKKPKSDTVRTSLRLLTSSAYRLQSECRKALPGDSSLPTDVQLVTQQVIQCAYDIAKAAKQLVTITTKENSS
B2: Arhgef7, endogenous in murine DC2.4 cells (natural protein)
chain: MNSAEQTVTWLITLGVLESPKKTISDPEVFLQASLKDGVVLCRLLERLLPGTIEKVYPEPRNESECLSNIREFLRACGASLRLETFDANDLYQGQNFNKVLSSLVTLNKVTADIGLGSDSVCARPSSHRIKSFDSLGSQSSHSRTSKLLQSQYRSLDMTDNTNSQLVVRAKFNFQQTNEDELSFSKGDVIHVTRVEEGGWWEGTHNGRTGWFPSNYVREIKPSEKPVSPKSGTLKSPPKGFDTTAINKSYYNVVLQNILETEHEYSKELQSVLSTYLRPLQTSDKLSSANTSYLMGNLEEISSFQQVLVQSLEECTKSPEAQQRVGGCFLSLMPQMRTLYLAYCANHPSAVSVLTEHSEDLGEFMETKGASSPGILVLTTGLSKPFMRLDKYPTLLKELERHMEDYHPDRQDIQKSMTAFKNLSAQCQEVRKRKELELQILTEPIRSWEGDDIKTLGSVTYMSQVTIQCAGSEEKNERYLLLFPNLLLMLSASPRMSGFIYQGKLPTTGMTITKLEDSENHRNAFEISGSMIERILVSCTSQQDLHEWVEHLQKQTKVTSVSNPTIKPHSVPSHTLPSHPLTPSSKHADSKPVALTPAYHTLPHPSHHGTPHTTISWGPLEPPKTPKPWSLSCLRPAPPLRPSAALCYKEDLSKSPKTMKKLLPKRKPERKPSDEEFAVRKSTAALEEDAQILKVIEAYCTSAKTRQTLNSTWQGTDLMHNHVLADDDQSSLDSLGRRSSLSRLEPSDLSEDSEYDSIWTAHSYRMGSASRSRKESAPQVLLPEEEKIIVEETKSNGQTVIEEKSLVDTVYALKDEVQELRQDNKKMKKSLEEEQRARKDLEKLVRKVLKNMNDPAWDETNL
B3: Nostrin, endogenous in murine DC2.4 cells (natural protein)
chain: MRDPLTDCSYNKVYKSLKEFAQHGDNFCKQITSVLQQRANLEISYAKGLQKLAVRLSKALQSTKKNCLSTAWAWASESMKSAADLHQKLGKAIELEAIKPTHQVLSMQEKKRKSLDNEVEKTANLVINNWNQQIKAKKKLMMSTKKHEALFHLVESSKQSLTQKEKQKLLNKLKKSTEKLEKEDESYYQKNMAGYSTRLKWESTLENCYKSMLELEKERIQLLCNNLNQYSQHISLFGQTLTTCHTQIHCAISKVDVEKDIQALMEETAILSIENKSELLLADYFEEDPKNPMDKERRKSLLKPKLGRLQRDIEKASRDKEGLERKLKALASSSSFSDAKSQKDMETLMDENSLKLDLLQANSYKLSSVLADLEQRPKPCHPCSTCIFKWKEKEHSHTYVKISRPLLTKRLEKAESKAPAGGQNNPSSSPSGSTVSQASKHLCKALYTFQARQDDELNLEKGDIVTVHEKKEEGWWFGSLKGKRGHFPAAYVEELPPKAGNTATQA
B4: Git1, endogenous in murine DC2.4 cells (natural protein)
chain: MSRKGPRAEVCADCSAPDPGWASISRGVLVCDECCSVHRSLGRHISIVKHLRHSAWPPTLLQMVHTLASNGANSIWEHSLLDPAQVQSGRRKANPQDKVHPIKSEFIRAKYQMLAFVHKLPCRDDDGVTAKDLSKQLHSSVRTGNLETCLRLLSLGAQANFFHPEKGTTPLHVAAKAGQTLQAELLVVYGADPGSPDVNGRTPIDYARQAGHHELAERLVECQYELTDRLAFYLCGRKPDHKNGHYIIPQMADRSRQKCMSQSLDLSELAKAAKKKLQALSNRLFEELAMDVYDEVDRRENDAVWLATQNHSTLVTERSAVPFLPVNPEYSATRNQGRQKLARFNAREFATLIIDILSEAKRRQQGKSLSSPTDNLELSARSQSELDDQHDYDSVASDEDTDQEPLPSAGATRNNRARSMDSSDLSDGAVTLQEYLELKKALATSEAKVQQLMKVNSSLSDELRRLQREIHKLQAENLQLRQPPGPVPPPSLPSERAEHTLMGPGGSTHRRDRQAFSMYEPGSALKPFGGTPGDELATRLQPFHSTELEDDAIYSVHVPAGLYRIRKGVSASSVPFTPSSPLLSCSQEGSRHASKLSRHGSGADSDYENTQSGDPLLGLEGKRFLELSKEDELHPELESLDGDLDPGLPSTEDVILKTEQVTKNIQELLRAAQEFKHDSFVPCSEKIHLAVTEMASLFPKRPALEPVRSSLRLLNASAYRLQSECRKTVPPEPGAPVDFQLLTQQVIQCAYDIAKAAKQLVTITTREKKQ
B5: Shp2 (Ptpn11), endogenous in murine DC2.4 cells (natural protein)
chain: MTSRRWFHPNITGVEAENLLLTRGVDGSFLARPSKSNPGDFTLSVRRNGAVTHIKIQNTGDYYDLYGGEKFATLAELVQYYMEHHGQLKEKNGDVIELKYPLNCADPTSERWFHGHLSGKEAEKLLTEKGKHGSFLVRESQSHPGDFVLSVRTGDDKGESNDGKSKVTHVMIRCQELKYDVGGGERFDSLTDLVEHYKKNPMVETLGTVLQLKQPLNTTRINAAEIESRVRELSKLAETTDKVKQGFWEEFETLQQQECKLLYSRKEGQRQENKNKNRYKNILPFDHTRVVLHDGDPNEPVSDYINANIIMPEFETKCNNSKPKKSYIATQGCLQNTVNDFWRMVFQENSRVIVMTTKEVERGKSKCVKYWPDEYALKEYGVMRVRNVKESAAHDYTLRELKLSKVGQGNTERTVWQYHFRTWPDHGVPSDPGGVLDFLEEVHHKQESIVDAGPVVVHCSAGIGRTGTFIVIDILIDIIREKGVDCDIDVPKTIQMVRSQRSGMVQTEAQYRFIYMAVQHYIETLQRRIEEEQKSKRKGHEYTNIKYSLVDQTSGDQSPLPPCTPTPPCAEMREDSARVYENVGLMQQQRSFR

How the values were obtained:
Assay in all cases: affinity purification with mass spectrometry; HA-tagged TgWIP variants pulled down by the HA tag from lysates of DC2.4 cells infected 4 h at MOI 7; host partners by mass spectrometry; values are negative fold changes in peptide counts of the mutant immunoprecipitations relative to TgWIP^WT
[1] = target: TgWIP^(PRR2 mut), HA-tagged (Toxoplasma gondii)
[2] = target: TgWIP^(PRR3 mut), HA-tagged (Toxoplasma gondii)
[3] = target: TgWIP^(WIRS mut), HA-tagged (Toxoplasma gondii)
[4] = target: TgWIP^Y150A/Y199A, HA-tagged (Toxoplasma gondii)

Molecule | negative fold change in peptide counts relative to TgWIP^WT [1] [fold] | negative fold change in peptide counts relative to TgWIP^WT [2] [fold] | negative fold change in peptide counts relative to TgWIP^WT [3] [fold] | negative fold change in peptide counts relative to TgWIP^WT [4]
Pstpip1, endogenous in murine DC2.4 cells (from UniProt P97814 1-415) (natural protein) | 8 | 5 | 1 | 1 fold
Cyfip2, endogenous in murine DC2.4 cells (from UniProt Q5SQX6 1-1253) (natural protein) | 3 | 5 | 2 | 2 fold
Nck2, endogenous in murine DC2.4 cells (from UniProt O55033 1-380) (natural protein) | 1 | 3 | 1 | 1 fold
Shp1 (Ptpn6), endogenous in murine DC2.4 cells (from UniProt P29351 1-595) (natural protein) | 3 | 3 | 2 | 32 fold
Abi1, endogenous in murine DC2.4 cells (from UniProt Q8CBW3 1-481) (natural protein) | 4 | 6 | 4 | 2 fold
Wasf2 (Wave2), endogenous in murine DC2.4 cells (from UniProt Q8BH43 1-497) (natural protein) | 3 | 15 | 3 | 2 fold
Cyfip1, endogenous in murine DC2.4 cells (from UniProt Q7TMB8 1-1253) (natural protein) | 2 | 5 | 2 | 1 fold
Lrrk1, endogenous in murine DC2.4 cells (from UniProt Q3UHC2 1-2014) (natural protein) | 3 | 3 | 1 | 1 fold
Grb2, endogenous in murine DC2.4 cells (from UniProt Q60631 1-217) (natural protein) | 6 | 3 | 2 | 4 fold
B1 | 2 | – | 2 | 3 fold
B2 | 4 | 8 | 2 | 3 fold and 2 fold
B3 | 6 | 5 | 3 | 1 fold
B4 | 4 | 11 | 2 | 2 fold
B5 | 3 | – | – | 39 fold
